# Measured values published in patent CN105483091A.
# T1: 原核表达的重组人Calcitonin蛋白 (PET28a-Calcitonin, 大肠杆菌BL21表达, Ni-NTA纯化) (human) (UniProt P01258)
# T1 sequence (looked up): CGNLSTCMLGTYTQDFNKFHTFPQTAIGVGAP
# B1: 小鼠抗人Calcitonin单克隆抗体 (杂交瘤细胞株7D5, CGMCC No.6919 产生) (antibody, part only; not given: light chain variable region, V domains shown, part only)
# VH: LFCQTAGVHSEVQLQQSGPELVKPGTSVKMSCKASGYTFTSYVIHWVKQKPGQGLEWIGYINPYNVGTKYNEKFRDKATLTSDKSSNTAYMELSSLTSEDFAVYYCVRS
# Key:
# [1] = molecular target: T1, 原核表达的重组人Calcitonin蛋白 (PET28a-Calcitonin, 大肠杆菌BL21表达, Ni-NTA纯化) (human); assay: ELISA titer, as told in the summary of results
# [2] = molecular target: T1, 原核表达的重组人Calcitonin蛋白 (PET28a-Calcitonin, 大肠杆菌BL21表达, Ni-NTA纯化) (human); assay: direct ELISA, purified antibody diluted 1:200 to 1:12800 on plates coated with purified Calcitonin protein (10 μg/ml), goat anti-mouse IgG-HRP, OD450
binder,measurement,setting,value
B1,ELISA滴度 (dilution (1:x)),[1],> 100000
same,ELISA滴度 (dilution (1:x)),[2],> 10000
